{"source": "paper PMC7376121", "about": "“In-Lipid Structure of Pressure-Sensitive Domains Hints Mechanosensitive Channel Functional Diversity” (Biophysical Journal, 2020)", "proteins": {"B1": {"name": "Escherichia coli MscL F93C, MTSSL spin-labelled (EcMscL F93R1) (natural protein, UniProt P0A742 1-136, looked up)", "chain": "MSIIKEFREFAMRGNVVDLAVGVIIGAAFGKIVSSLVADIIMPPLGLLIGGIDFKQFAVTLRDAQGDIPAVVMHYGVFIQNVFDFLIVAFAICMAIKLINKLNRKKEEPAAAPAPTKEEVLLTEIRDLLKEQNNRS", "modifications": "MTSSL spin label on the cysteine at 93 (R1)", "notes": "Mechanosensitive channel of large conductance (MscL), Escherichia coli; cysteine mutant on vector pET-52b; R1 denotes the spin-labelled cysteine; also called EcF93R1; source: E. coli BL21 (DE3), purified (Ni-NTA, SEC) in DDM, MTSSL spin-labelled; also reconstituted in MSP1D1 DMPC nanodisks"}, "B2": {"name": "Escherichia coli MscL M94C, MTSSL spin-labelled (EcMscL M94R1) (natural protein, UniProt P0A742 1-136, looked up)", "chain": "B1 chain with C93F, M94C", "modifications": "MTSSL spin label on the cysteine at 94 (R1)", "notes": "Mechanosensitive channel of large conductance (MscL), Escherichia coli; cysteine mutant on vector pET-52b; R1 denotes the spin-labelled cysteine; possibly a pentamer in DDM; also called EcM94R1; EcM94C; source: E. coli BL21 (DE3), purified (Ni-NTA, SEC) in DDM, MTSSL spin-labelled; also reconstituted in MSP1D1 DMPC nanodisks"}}, "target": "the molecule itself", "assay": "PELDOR/DEER; spin-labelled single-cysteine channel in DDM detergent solution (50 mM sodium phosphate pH 7.5, 300 mM NaCl, 0.05% DDM), diluted 1:1 with deuterated ethylene glycol, flash frozen; Q band, 50 K; distances between the labels of the subunits of one channel", "note": "Positions count from the first letter of the chain named. Names and notes keep the numbering of the source.", "data": [{"protein": "B1", "values": [{"measurement": "stoichiometry N", "result": 5}]}, {"protein": "B2", "values": [{"measurement": "binding result", "result": "binds"}]}]}
